The target of test [1] is His-tagged wild-type cytochrome bc1 complex from Paracoccus denitrificans (Paracoccus denitrificans) (UniProt P05417).
The target in test [2] is wild-type cytochrome bc1 complex from Paracoccus denitrificans (Paracoccus denitrificans) (UniProt P05417).

Take “horse heart cytochrome c (from UniProt P00004 1-105) (natural protein)”: in test [1], the steady-state reduction of cytochrome c by bc1 complex with decylubiquinol, KM is 3.4 µM and the steady-state reduction of cytochrome c by bc1 complex with decylubiquinol, kCAT was 328 s⁻¹. In test [2], this substance registered a steady-state reduction of cytochrome c by bc1 complex with decylubiquinol, KM of 2.3 µM and a steady-state reduction of cytochrome c by bc1 complex with decylubiquinol, kCAT of 273 s⁻¹.

For the origin of these results see article PMC3171513.
